Target: UAP56 (UniProt Q13838 1-428)
Assay: pull-down (NeutrAvidin beads, RNA unclamping assay); ATP, 2 mM Mg2+; clamped UAP56-ADP-Pi-RNA complex, no release factor; RNA unclamping: 20 mM HEPES pH 7.9, 40 mM KCl, 2 mM MgCl2, 5% glycerol, 0.1% Igepal CA-630, 1 mM ATP at loading, room temperature, 500 mM KCl wash; cryo-EM: 25
Conditions: protein: recombinant; tags: 10xHis-3C (N-term); single strand

Sequence of UAP56 (Q13838 whole entry): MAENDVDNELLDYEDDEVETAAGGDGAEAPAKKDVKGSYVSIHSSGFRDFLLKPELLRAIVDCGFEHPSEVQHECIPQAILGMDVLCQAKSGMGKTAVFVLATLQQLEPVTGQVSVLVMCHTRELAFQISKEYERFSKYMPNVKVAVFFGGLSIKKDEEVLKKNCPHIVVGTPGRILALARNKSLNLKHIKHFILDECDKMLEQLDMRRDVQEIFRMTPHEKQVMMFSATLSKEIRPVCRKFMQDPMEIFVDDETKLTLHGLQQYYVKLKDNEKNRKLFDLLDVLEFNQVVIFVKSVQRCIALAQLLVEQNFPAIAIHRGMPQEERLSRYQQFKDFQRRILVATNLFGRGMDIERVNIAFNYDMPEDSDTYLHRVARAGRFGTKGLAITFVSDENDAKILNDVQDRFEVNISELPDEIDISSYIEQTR

B1: biotinylated 15U RNA (ssRNA)
RNA: UUUUUUUUUUUUUUU
binding result: binds

Reference: PMC13391367
